This series can be described thus: yeast display, Sf9 membrane polyspecificity reagent, FACS + sequencing; frameworks hold sequencing errors. The procedure, abridged:
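Using colony PCR, genes from sorted yeast display clones were amplified, then sequenced on MiSeq at 2 × 250 and filtered by CDR length. The clones had been stained with 10% biotinylated, detergent-solubilized Sf9 membrane reagent for 1 hour at 4 °C and sorted by FACS into low and high (top ~1%) gates on anti-HA and streptavidin fluorescence. Polyreactivity labels come from the gate of origin.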
In the case of “QVQLVESGGGLVQAGGSLRLSCAASGFTFHYYAMGRYRQAPGKERELVAAISWDTGSTYYADSVKGRFTISRDNAKNTVYLQMNSLKPEDTAVYYCNAQFYWYHGEWVFYGLSDDFDYWGQGTQVTVSS”, the “polyreactivity (PSR sort gate)” value is recorded as “high polyreactivity”. The entry for “QVQLVESGGGLVQAGGSLRLSCAASGFTFHYYTMAWYRQAPGKEREFVAAMSKSGGRTYYADSVKGRFTISRDKAKNTVYLQMNSLKPEDTAVYYCSTVGYWRNRHDYWGQGTQVTVSS” is “high polyreactivity”; for “QVQLVESGGGLVQAGGSLRLSCAASGFTFHYYVMGWYRQAPGKERELVAAINAGGVSTYYADSVKGRFTISRDNAKNTVYLQMNSLKPEDTAVYYCNARVRVRLGRNWSSYYYWGQGTQVTVSS” it is “high polyreactivity”. As for “QVQLVESGGGLVQAGGSLRLSCAASGFTFIDYTMGWYRQAPGKERELVARITDTGSTNYADSVKGRFTISRDNAKNTVYLQMNRLKPEDTAVYYCNKDDRNDRTIPGYDPEYDYWGQGTQVTVSS”, the “polyreactivity (PSR sort gate)” value is reported as “low polyreactivity”. The entry for “QVQLVESGGGLVQAGGSLRLSCAASGFTFIRNAMGWYRQAPGKERELVAVITRSGGSTYYADSVKGRFTISRDNAKNTVYLQMNSLKPQDTAVYYCAATLRYSPRRRYDYWGQGTQVTVSS” is “high polyreactivity”. The entry for “QVQLVESGGGLVQAGGSLRLSCAASGFTFIRYAMGWYIQAPGKERELVASISNRGGRTYYADSVKGRFTISRDNAKNTFYLQMNSLKPEDTAVYYCAAKFSSYWSRFGYWGQGTQVTVSS” is “high polyreactivity”; for “QVQLVESGGGLVQAGGSLRLSCAASGFTFIRYAMGWYRQAPGKEREFVAAISWRVGITYYADSVKGRFTMSRDNAKNTVYLQMNSLKPEDTAVYYCARDYRNPPFAYEYWGQGTQVTVSS” it is “low polyreactivity”; for “QVQLVESGGGLVQAGGSLRLSCAASGFTFIRYAMGWYRQAPGKERELVATITRSGGSTYYADSVKGRFTISRDNAKNTVYLQMNSLKPEDTAVYYCAKRGTLGSYYYWGQGTQVTVSS” it is “high polyreactivity”.

As for “QVQLVESGGGLVQAGGSLRLSCAASGFTFITNAMGLYRQAPGKERELVASISIGGSTNYADSVKGRFTISRDNAKNTVYLQMNSLKPEDTAVYYCAARVYRRLFLPGRYGRPLGYWGQGTQVTVSS”, the “polyreactivity (PSR sort gate)” value is listed as “high polyreactivity”. Turning to “QVQLVESGGGLVQAGGSLRLSCAASGFTFIYYAMGWYRQAPGKERELVAAISASGGSTYYADSVKGRFTISRDNSKNTVYLQMNSLKPEDTAVYYCDAYRVWYRGYPMGYWGQGTQVTVSS”, the “polyreactivity (PSR sort gate)” value is recorded as “high polyreactivity”.

“QVQLVESGGGLVQAGGSLRLSCAASGFTFKDNTMGWYRQAPGKEGELVAAISSRGGSTYYADSVKGRFTISRDTAKNTVYLQMNSLKPEDTAVYYCAARSHSSRSRSPGDYWGQGTQVTVSS”: the “polyreactivity (PSR sort gate)” value is reported as “high polyreactivity”. The entry for “QVQLVESGGGLVQAGGSLRLSCAASGFTFKFNTMGWYRQAPGKERELVAAISWRGGDTSYADSVKGRFTISRDNAKNNVYLQMNSLKPEDTAVYYCAASPRYPYWYDYWGQGTQVTVSS” is “low polyreactivity”. With “QVQLVESGGGLVQAGGSLRLSCAASGFTFKGYAMGWYRQAPGKERELVAAITRGGSTYYADSVKGRFTISRDNAKNTVYLQMNSLKPEDTAVYYCAARGRGHGTTPNDYWGQGTQVTVSS”, the “polyreactivity (PSR sort gate)” value is reported as “high polyreactivity”. The entry for “QVQLVESGGGLVQAGGSLRLSCAASGFTFKHYTMGWYRQAPGKERELVAAISYSGGSTYYADSVKGRFTISRDNAKNTVYLQMNSLKPEDTAVYYCAADAVKASVSYIVPYAAYDYWGQGTQVTVSS” is “low polyreactivity”; for “QVQLVESGGGLVQAGGSLRLSCAASGFTFKINGKGWYRQAPGKEREFVATIRTSTGRTYYADSVKGRFTISRDNAKNTVYLQMNSLKPEDTAVYYCATDYLFERLLQEMDYWGQGTQVTVSS” it is “high polyreactivity”; for “QVQLVESGGGLVQAGGSLRLSCAASGFTFKKYAMGWYRQAPGKERELVASITWSGGSTSYADSVKGRFTISRDNAKNTVYLQMNSRKPEDTAVYYCDAATFVYRLRYNRFDYWGQGTQVTVSS” it is “high polyreactivity”. The entry for “QVQLVESGGGLVQAGGSLRLSCAASGFTFKRNAMGWYRQAPGKERELVAAITKSGGSTYYADSVKGRFTISRDNAKNTVYLQMNSLQPEDTAVYYCNTVHYYRDYDYWGQGTQVTVSS” is “high polyreactivity”. The entry for “QVQLVESGGGLVQAGGSLRLSCAASGFTFKRYAMGWYRQAPGKEREFVAAITRGGGSTYYTDSVKGRFTISRDNAKNTVYLQMNSLKPEYTAVYYCAAVLYYYWRGYGPRSNRYDYWGQGTQVTVSS” is “high polyreactivity”; for “QVQLVESGGGLVQAGGSLRLSCAASGFTFKRYAMGWYRQAPGKERELVAAISWSGGSTYYADSVKGRFTISRDNAKNTVYLQMNSLKPEDTAVYYCNAVCRFSTRREYWGQGTQVTVSS” it is “high polyreactivity”. With “QVQLVESGGGLVQAGGSLRLSCAASGFTFKSYAMGWYRQAPGKERELVAGISRNGGRTYYADSVKGRFTISRDNAKNTVYLQMNSLKPEDTAVYYCAARIYTSRDNYWGQGTQVTVSS”, the “polyreactivity (PSR sort gate)” value is given as “high polyreactivity”. As for “QVQLVESGGGLVQAGGSLRLSCAASGFTFKSYTMGSYRQAPGKERELVAAISRRDGSTYYADSVKGRFTISRDNAKNTVYLQMNSLKPEDTAVYYCAKVWYGDRNIDRYDYWGQGTQVTVSS”, the “polyreactivity (PSR sort gate)” value was “high polyreactivity”. As to “QVQLVESGGGLVQAGGSLRLSCAASGFTFKYYAMGWYRQAPGKERELVAAISSGATTYYADSVKGRFTISRDNAKNTVYLQMNSLKPEDTAVYYCNANRFRRYDWGQGTLVTVSS”, the “polyreactivity (PSR sort gate)” value is “high polyreactivity”. The entry for “QVQLVESGGGLVQAGGSLRLSCAASGFTFKYYAMGWYRQAPGKERELVADITRSGGSTYYADSVKGRFTISRDTAKITVYLQMNSLKPEDTAVYYCAVDPVRYPYSYDYWGQGTQVTVSS” is “high polyreactivity”. The entry for “QVQLVESGGGLVQAGGSLRLSCAASGFTFKYYAMGWYRQAPRKERELVAAITSRGGSTYYADSVKGRFTISRDNAKNTVYLQMNSLKPEDTAVYYCAARFRKIGVAFDYWGQGTQVTVSS” is “high polyreactivity”. The entry for “QVQLVESGGGLVQAGGSLRLSCAASGFTFKYYDMGWYRQAPGKERELVAAIDTSGGNTYYADSVKGRFTISRDNAKNTVYLQMNSLKPEDTAVYYCAATVPYYHDDYWGQGTQVTVSS” is “low polyreactivity”; for “QVQLVESGGGLVQAGGSLRLSCAASGFTFKYYVMGSYRQAPGKERFVAAITGSGASTYYADSVKGRFTISRDNAKNTVFLQMNSLKPEETAVYYCNADYYAGRYRYDYWGQGTQVTVSS” it is “high polyreactivity”.

As for “QVQLVESGGGLVQAGGSLRLSCAASGFTFLAYAMGWYRQAPGQERELVAAINSSDGTTHYADSVKGRFTISRDTAKNTVYLQMNSLKPEDTAVYYCAVSQVRTGEGYHYWGQGTQVTVSS”, the “polyreactivity (PSR sort gate)” value was “low polyreactivity”. The entry for “QVQLVESGGGLVQAGGSLRLSCAASGFTFLRYAMGWYRQAPGKERELVAAISTSGGRTYYADSVKGRFTISRDNAKNTVYLQMNSLKPEDTAVYYCNAAGGYRTSPSDYWGQGTQVTVSS” is “high polyreactivity”; for “QVQLVESGGGLVQAGGSLRLSCAASGFTFLSNAMGWYRQAPVKERELVAGISWDAGSTNYADSVKGRVTISRDNAKNTVYLQMNSLKPEDTAVYYCNADDSTGSRFYIEYDYWGQGTQVTVSS” it is “low polyreactivity”.

As for “QVQLVESGGGLVQAGGSLRLSCAASGFTFLVYAMGWYRQAPGKERELVAAITWSGDSTYYADSVKGRFTISRDNAKNTVYLQMNSLKPEDTAVYYCAAAYRYGTLYYYWGQGTQVTVSS”, the “polyreactivity (PSR sort gate)” value is recorded as “low polyreactivity”.

Turning to “QVQLVESGGGLVQAGGSLRLSCAASGFTFLWNAMGWYRQAPGKERELVAAINGNSGNTYYADSVKGRFTISRDNAKNTVYLQMNSLKPEDTAVYYCARRGGVRGYYGGRRSKMDYWGQGTQVTVSS”, the “polyreactivity (PSR sort gate)” value is recorded as “low polyreactivity”. The entry for “QVQLVESGGGLVQAGGSLRLSCAASGFTFLYNAMGWSRQAPGKERELVASINSGGSTNYADSVKGRFTISRDNAKNTVYLQMNSLKPEDTAVYYFNAKRHVRKGDYWGQGTQVTVSS” is “low polyreactivity”. The entry for “QVQLVESGGGLVQAGGSLRLSCAASGFTFLYNARGWYIQAPGKERELVASINSGGSTNYADSVKGRFTISRDNAKNTVYLQKNSLKPEDTAVYYWNAKRHVRKGDYWGQGTQVTVSS” is “low polyreactivity”; for “QVQLVESGGGLVQAGGSLRLSCAASGFTFNANAMGWYRQAPGKERELVSVITRSGGRTYYADSVKGGFTISRDTAKNTVYLQMNSLKPEDSAVYYCATEGPSRVYQGTDSASDYWGQGTQVTVSS” it is “high polyreactivity”; for “QVQLVESGGGLVQAGGSLRLSCAASGFTFNAYAMGWYRQAPGKERELVAAINVSGGITYYADSVKGRFTISRDNAKNTVYLQMNSLKPEDTAVYYCARDSYYSQVYRRGYSVPWRLDYWGQGTQVTVSS” it is “low polyreactivity”. For “QVQLVESGGGLVQAGGSLRLSCAASGFTFNDYAMGWYRQAPGKERELVAAIDWSGGRTYYADSVKGRFTISRDNAKNTVYLQLNSLKPEDTAVDYCAVEDLSHAYVQHYRYGYGYWGQGTQVTVSS”, the “polyreactivity (PSR sort gate)” value was “low polyreactivity”. The entry for “QVQLVESGGGLVQAGGSLRLSCAASGFTFNFYAMGWYRQAPGKESELVASITSSGARTYYADSVKGRFTISSDNPKNTVYLQMNSLKPEDTAVYYCAARVYRYSASRAYDYWGQGTQVTVSS” is “high polyreactivity”; for “QVQLVESGGGLVQAGGSLRLSCAASGFTFNFYTMGWYRQAPGKERELVAAITWSGGSTYYADSVKGRFTISRDNAKNTVYLQLNSLKPEDTAVYYCAATQQSRDRRFNYWGQGTQVTVSS” it is “high polyreactivity”; for “QVQLVESGGGLVQAGGSLRLSCAASGFTFNGYAMGWYRQAPGHERELVAGITRRGGITYYADSVKGRFTISRDNAKNTVYLPMNSLKPEDTAVYYCARDYIGHALIHHASLYYYWGQGTQVTVSS” it is “high polyreactivity”. On to “QVQLVESGGGLVQAGGSLRLSCAASGFTFNIKTKGSDRQAPGKDRELVAAITSGGNSSYADSVKGRLTISRDNAKNTVYLQMNRVKPEDTAVYYCATEDFRTDTGMYYWGQGTQVTVSS”, for which the “polyreactivity (PSR sort gate)” value is “low polyreactivity”.
